How the values were obtained:
[1] = molecular target: rNav1.4 voltage-gated sodium channel α subunit (rat) (UniProt P15390)
[2] = molecular target: rNav1.4 voltage-gated sodium channel α subunit (rat) (UniProt P15390); remark: listed apart in the source
[3] = molecular target: rNav1.4 voltage-gated sodium channel α subunit (rat) (UniProt P15390); remark: listed apart in the source
[4] = molecular target: rNav1.4 voltage-gated sodium channel α subunit (rat) (UniProt P15390); remark: listed apart in the source

Substance	Activation V1/2 of sodium currents, two electrode voltage clamp, co-expression in oocytes [1] [mV]	Inactivation V1/2 (steady-state inactivation) [1] [mV]	Use-dependent current decline on repetitive depolarisations at 1 Hz (10% after the second pulse, cumulative rundown 20%) [2] [%]	Use-dependent current rundown on repetitive depolarisations at 5 Hz (data not shown) [2] [%]	Recovery from inactivation F (fast) [3]	Recovery from inactivation τ (fast) [3] [ms]	Recovery from inactivation τ (slow) [3] [ms]	Slowing of the current recovery after 1 ms, against WT β1 [4] [%]	Inactivation rate τ (inac) of the peak current at −20 mV [3] [ms]	Current recovery from inactivation after a recovery interval of 1 ms [4] [%]
rNavβ1 point mutant C43A (from UniProt Q00954 19-218) (natural protein)	-29	-59.1	20	20	0.89	2.7	636	95	–	–
rNavβ1 point mutant G33M (from UniProt Q00954 19-218) (natural protein)	-32.5	-56	–	–	–	–	760	–	0.46	–
rNavβ1 point mutant R89A (from UniProt Q00954 19-218) (natural protein)	-33	-62.6	–	–	0.92	2.3	376	90	2.6	–
rNavβ1 point mutant Y32A (from UniProt Q00954 19-218) (natural protein)	-34	-56	–	–	–	–	743	–	0.48	–
rNavβ1 voltage-gated sodium channel accessory subunit, wild type (from UniProt Q00954 19-218) (natural protein)	-33.4	-61.8	–	–	0.93	1.7	236	–	0.6	50

Reference: article PMC3864903
